Values of other authors in publication PMC7314768.

Legend:
[1] = target: Cys145 (UniProt position 3385, FLNGSCGSVGF)
[2] = target: His41 (UniProt position 3281, VYCPRHVICTA)

For “3C-like main protease (3CL Mpro, 3CLpro, nsp5) of SARS coronavirus (Severe acute respiratory syndrome coronavirus (SARS-CoV))”, the pKa [1] is given as 8.0 ± 0.3 and the pKa [2] is given as 6.3 ± 0.1.
